Experimental data: the Immune Epitope Database (IEDB)

Tests used:
HLA-B*57:01 [1] = assay: IEDB peptide-MHC binding, purified MHC/direct/fluorescence; filed as Kd, often an IC50 or EC50 that approximates it; ≥ and ≤ were set here for values at or beyond the usual limits of such assays
HLA-B*15:17 [2] = assay: as above
HLA-B*58:01 = assay: as above
HLA-C*12:03 = assay: as above
HLA-A*01:01 = assay: as above
HLA-B*27:03 = assay: IEDB peptide-MHC binding, purified MHC/competitive/fluorescence; filed as Kd, often an IC50 or EC50 that approximates it; ≥ and ≤ were set here for values at or beyond the usual limits of such assays
HLA-B*51:01 = assay: as above
HLA-B*39:01 [3] = assay: as above; settings: source organism: Tetraodon nigroviridis
HLA-B*46:01 [4] = assay: as above
HLA-B*07:02 [5] = assay: IEDB peptide-MHC binding, purified MHC/competitive/fluorescence; ≥ and ≤ were set here for values at or beyond the usual limits of such assays
HLA-A*24:02 = assay: as above; settings: source organism: Zaire ebolavirus
HLA-A*02:01 [6] = assay: as above; settings: source organism: Zaire ebolavirus
HLA-B*07:02 [7] = assay: IEDB peptide-MHC binding, purified MHC/direct/fluorescence; filed as Kd, often an IC50 or EC50 that approximates it; ≥ and ≤ were set here for values at or beyond the usual limits of such assays; settings: source organism: Mammarenavirus lassaense
HLA-A*11:01 [8] = assay: as above; settings: source organism: Mammarenavirus lassaense
HLA-B*44:02 = assay: as above; settings: source organism: Mammarenavirus lassaense
HLA-A*03:01 [9] = assay: as above
HLA-B*48:01 = assay: as above; settings: source organism: Mammarenavirus lassaense
HLA-B*15:01 [10] = assay: as above; settings: source organism: Mammarenavirus lassaense
HLA-B*39:01 [11] = assay: as above; settings: source organism: Mammarenavirus lassaense
HLA-B*27:05 = assay: as above; settings: source organism: Mammarenavirus lassaense
HLA-A*02:01 [12] = assay: as above; settings: source organism: Mammarenavirus lassaense
HLA-A*31:01 = assay: as above; settings: source organism: Mammarenavirus lassaense
HLA-B*46:01 [13] = assay: as above; settings: source organism: Mammarenavirus lassaense
HLA-A*11:01 [14] = assay: IEDB peptide-MHC binding, purified MHC/competitive/fluorescence; ≥ and ≤ were set here for values at or beyond the usual limits of such assays
HLA-A*03:01 [15] = assay: as above
HLA-B*57:01 [16] = assay: IEDB peptide-MHC binding, purified MHC/competitive/fluorescence; filed as Kd, often an IC50 or EC50 that approximates it; ≥ and ≤ were set here for values at or beyond the usual limits of such assays
HLA-A*26:01 = assay: as above
HLA-A*03:01 [17] = assay: as above; settings: source organism: Cryptosporidium parvum Iowa II
HLA-B*15:01 [18] = assay: as above
HLA-B*18:01 = assay: as above; settings: source organism: Cryptosporidium parvum Iowa II
HLA-A*02:01 [19] = assay: as above
HLA-A*02:03 [20] = assay: as above; settings: source organism: Cryptosporidium parvum Iowa II
HLA-A*02:11 [21] = assay: as above; settings: source organism: Cryptosporidium parvum Iowa II
HLA-B*15:01 [22] = assay: IEDB peptide-MHC binding, purified MHC/competitive/fluorescence; ≥ and ≤ were set here for values at or beyond the usual limits of such assays; settings: source organism: Zaire ebolavirus
HLA-B*15:42 = assay: IEDB peptide-MHC binding, purified MHC/competitive/fluorescence; filed as Kd, often an IC50 or EC50 that approximates it; ≥ and ≤ were set here for values at or beyond the usual limits of such assays; settings: source organism: Yellow fever virus
HLA-B*45:06 = assay: as above; settings: source organism: Yellow fever virus
HLA-B*83:01 = assay: as above; settings: source organism: Yellow fever virus
HLA-A*29:02 = assay: IEDB peptide-MHC binding, purified MHC/direct/fluorescence; filed as Kd, often an IC50 or EC50 that approximates it; ≥ and ≤ were set here for values at or beyond the usual limits of such assays; settings: source organism: Convict Creek 107 virus
HLA-B*40:01 = assay: as above; settings: source organism: Orthohantavirus negraense
HLA-A*02:12 = assay: as above; settings: source organism: Convict Creek 107 virus
HLA-A*02:19 = assay: as above; settings: source organism: Convict Creek 107 virus
HLA-A*24:03 = assay: as above; settings: source organism: Convict Creek 107 virus
HLA-A*02:16 = assay: as above; settings: source organism: Convict Creek 107 virus
HLA-A*02:03 [23] = assay: as above; settings: source organism: Convict Creek 107 virus
HLA-A*02:11 [24] = assay: as above; settings: source organism: Convict Creek 107 virus
HLA-B*15:17 [25] = assay: IEDB peptide-MHC binding, purified MHC/competitive/fluorescence; filed as Kd, often an IC50 or EC50 that approximates it; ≥ and ≤ were set here for values at or beyond the usual limits of such assays; settings: source organism: Orthohantavirus sinnombreense
[26] = source organism: Cryptosporidium parvum Iowa II
[27] = source organism: Cryptosporidium parvum
[28] = source organism: Mycobacterium tuberculosis
[29] = source organism: Tetraodon nigroviridis
[30] = source organism: Zaire ebolavirus
[31] = source organism: Mammarenavirus lassaense
[32] = source organism: Vaccinia virus WR
[33] = source organism: Vaccinia virus Copenhagen
[34] = source organism: Orthohantavirus sinnombreense

KSFGRISVL
Kd (HLA-B*57:01 [1]; [26]): 0.316 µM
Kd (HLA-B*15:17 [2]; [27]): 0.0008 µM
Kd (HLA-B*58:01; [27]): 0.0176 µM
Kd (HLA-C*12:03; [26]): ≤ 0.001 µM

RAYWIHLMM
Kd (HLA-B*57:01 [1]; source organism: Mycobacterium tuberculosis str. Haarlem): 0.165 µM
Kd (HLA-B*15:17 [2]; [28]): 0.0022 µM
Kd (HLA-B*58:01; [28]): 0.0957 µM
Kd (HLA-C*12:03; source organism: Mycobacterium tuberculosis C): 0.002 µM

NTFKFGVIY
Kd (HLA-A*01:01; source organism: Danio rerio): 0.52 µM
Kd (HLA-C*12:03; [29]): ≤ 0.001 µM
Kd (HLA-B*27:03; [29]): ≥ 20 µM
Kd (HLA-B*51:01; [29]): ≥ 20 µM
Kd (HLA-B*39:01 [3]): ≥ 20 µM
Kd (HLA-B*46:01 [4]; [29]): ≥ 20 µM

LFPQLSAIA
IC50 (HLA-B*07:02 [5]; [30]): ≥ 142 µM
IC50 (HLA-A*24:02): 13.9 µM
IC50 (HLA-A*02:01 [6]): 32.7 µM

IEEVMNIVL
Kd (HLA-B*07:02 [7]): ≥ 20 µM
Kd (HLA-A*11:01 [8]): ≥ 20 µM
Kd (HLA-B*44:02): ≥ 20 µM
Kd (HLA-B*57:01 [1]; [31]): ≥ 20 µM
Kd (HLA-A*03:01 [9]; [31]): ≥ 20 µM
Kd (HLA-B*48:01): ≥ 20 µM
Kd (HLA-B*15:01 [10]): ≥ 20 µM
Kd (HLA-B*39:01 [11]): 0.946 µM
Kd (HLA-B*27:05): ≥ 20 µM
Kd (HLA-A*01:01; [31]): ≥ 20 µM
Kd (HLA-A*02:01 [12]): ≥ 20 µM
Kd (HLA-B*58:01; [31]): ≥ 20 µM
Kd (HLA-A*31:01): ≥ 20 µM
Kd (HLA-B*46:01 [13]): ≥ 20 µM

AVIRANNNR
IC50 (HLA-A*11:01 [14]; [32]): 2.16 µM
IC50 (HLA-A*03:01 [15]; [32]): 5.9 µM

TKITFALKK
IC50 (HLA-A*11:01 [14]; [33]): 11.1 µM
IC50 (HLA-A*03:01 [15]; [33]): 39.6 µM

ERTDLFFPV
Kd (HLA-B*57:01 [16]; [26]): ≥ 20 µM
Kd (HLA-A*26:01; [26]): ≥ 20 µM
Kd (HLA-B*51:01; [26]): ≥ 20 µM
Kd (HLA-A*03:01 [17]): ≥ 20 µM
Kd (HLA-B*15:01 [18]; [26]): ≥ 20 µM
Kd (HLA-B*18:01): ≥ 20 µM
Kd (HLA-A*02:01 [19]; [26]): ≥ 20 µM
Kd (HLA-A*02:03 [20]): ≥ 20 µM
Kd (HLA-B*46:01 [4]; [26]): ≥ 20 µM
Kd (HLA-A*02:11 [21]): 2.82 µM

KVSGTGPCA
IC50 (HLA-B*07:02 [5]; [30]): ≥ 96.8 µM
IC50 (HLA-A*02:01 [6]): ≥ 118 µM

FLSDYGPQL
Kd (HLA-C*12:03; source organism: Mycobacterium tuberculosis variant bovis BCG str. Pasteur 1173P2): 0.233 µM

IKRTLAAMP
IC50 (HLA-B*07:02 [5]; [30]): ≥ 151 µM

KGYVVSRRG
IC50 (HLA-A*03:01 [15]; [32]): ≥ 102 µM

QSVGHMMVI
IC50 (HLA-B*07:02 [5]; [30]): 34.5 µM
IC50 (HLA-B*15:01 [22]): ≥ 143 µM
IC50 (HLA-A*24:02): 3.77 µM
IC50 (HLA-A*02:01 [6]): 4.89 µM

GHGFRFEVK
IC50 (HLA-A*11:01 [14]; [30]): 3.17 µM
IC50 (HLA-A*03:01 [15]; [30]): 6.42 µM

MVIFFMSPK
Kd (HLA-B*15:42): ≥ 5 µM
Kd (HLA-B*45:06): ≥ 5 µM
Kd (HLA-B*83:01): ≥ 5 µM

HHAYQGDYK
IC50 (HLA-A*11:01 [14]; [30]): ≥ 70.5 µM
IC50 (HLA-A*03:01 [15]; [30]): 46 µM

TEFFMSRKL
Kd (HLA-A*29:02): ≥ 20 µM
Kd (HLA-B*40:01): 0.0014 µM
Kd (HLA-A*02:12): ≥ 20 µM
Kd (HLA-A*03:01 [9]; source organism: Convict Creek 107 virus): ≥ 20 µM
Kd (HLA-A*02:19): ≥ 20 µM
Kd (HLA-A*24:03): ≥ 20 µM
Kd (HLA-A*02:16): ≥ 20 µM
Kd (HLA-A*02:03 [23]): ≥ 20 µM
Kd (HLA-A*02:11 [24]): ≥ 20 µM
Kd (HLA-B*57:01 [16]; [34]): ≥ 20 µM
Kd (HLA-B*27:03; [34]): ≥ 20 µM
Kd (HLA-A*26:01; [34]): ≥ 20 µM
Kd (HLA-B*51:01; [34]): ≥ 20 µM
Kd (HLA-B*15:17 [25]): ≥ 20 µM
Kd (HLA-B*15:01 [18]; [34]): ≥ 20 µM
Kd (HLA-A*02:01 [19]; [34]): ≥ 20 µM
Kd (HLA-B*46:01 [4]; [34]): ≥ 20 µM

KPPKFRAFR
IC50 (HLA-B*07:02 [5]; source organism: Vaccinia virus): ≥ 169 µM

IVKTVLDHI
IC50 (HLA-B*07:02 [5]; [30]): ≥ 170 µM
IC50 (HLA-A*24:02): 6.71 µM
IC50 (HLA-A*02:01 [6]): ≥ 91.6 µM
